Biological target: SiOBP15, purified, His-tag removed (Solenopsis invicta)
Assay: SPR; open SPR; SiOBP15 coupled to a COOH chip until saturation, SiApoLp-III or SiFABP5 titrated as analyte; one-to-one model (TraceDrawer)

Q: Which Kd does the source give for “SiFABP5, purified, His-tag removed (natural protein)” here?
A: The Kd was 1100 nM.
